Laboratory results published in paper doi:10.1101/2025.09.11.675134, “Biodistribution-Driven Discovery Identifies a Glycosidase-Cleavable Linker to Reprogram Radiotheranostics” (bioRxiv, 2025).
Entries after “also recorded” stand apart in the source; their conditions may differ. Where two headings read alike, the source gives them in different places.

Assays:
[1] = PET/CT quantification of 86Y-labeled variants in AR42J xenograft mice; format: in vivo; details: athymic nude, mouse, in vivo, iv, total radioactivity, 86Y-labeled, PET/CT, AR42J xenograft mice, mean ± SD, n = 3; for SUV at 1 h: 1 h post-injection; for SUV at 4 h: 4 h post-injection; for SUV at 24 h: 24 h post-injection
Protocol: For studies involving three variants (DOTA -TATE, DOTA-MVK(ε)-TATE, and DOTA-β-Gal-TATE), AR42J cells (5 × 10^6 cells per mouse) were subcutaneously inoculated into the right shoulder of the mice. Tumors were allowed to grow for 3 weeks, reaching a volume of 100 –200 mm³ before being used in subsequent experiments. For biodistribution or PET imaging studies, mice bearing subcutaneous AR42J tumors were administered 1.4 – 1.8 MBq (1 μg) of 111In-labeled DOTA-TATE variants or 2.7 – 4.9 MBq (1 μg) of 86Y-labeled DOTA-TATE variants via […]
tail vein injection. […]
PET imaging to assess the uptake of three 86Y-labeled DOTA-TATE variants (2.7 – 4.9 MBq, 1 μg) in the kidney and tumor was performed at 1, 4, and 24 hours post-injection (n = 3 per cohort) in mice bearing AR42J tumors using the MRS*PET/CT 120 scanner (MR Solutions, Guildford, UK). PET/CT data acquisition was managed using Preclinical Scan software (version 4.2.4.0, MR Solutions). Mice were anesthetized with 2% isoflurane, and static PET sc ans were acquired over 10 min. CT scans were obtained for attenuation correction and anatomical co-registration.
PET data were reconstructed using three-dimensional ordered-subsets expectation maximization, and were subsequently normalized, decay - and dead-time–corrected prior to analysis. PET/CT images were analyzed using MIM software (version 7.2.7, MIM Software Inc., Beachwood, OH, USA), and the quantitative evaluation of the maximum standardized uptake (SUVmax) and the average standardized uptake values (SUVmean) in the kidney and tumor were also performed. […]

[2] = Ex vivo biodistribution of 86Y-labeled variants in AR42J tumor-bearing mice; details: athymic nude, mouse, iv, 1 ug, total radioactivity, mean; for tissue uptake at 1 h: 1 h post-injection; for tissue uptake at 4 h: 4 h post-injection; for tissue uptake at 24 h: 24 h post-injection
Protocol: To independently confirm these observations, ex vivo biodistribution studies were conducted using the same ^86Y-labeled compounds at matched timepoints (Fig. S16; Table S3). […]
For studies involving three variants (DOTA -TATE, DOTA-MVK(ε)-TATE, and DOTA-β-Gal-TATE), AR42J cells (5 × 10^6 cells per mouse) were subcutaneously inoculated into the right shoulder of the mice. Tumors were allowed to grow for 3 weeks, reaching a volume of 100 –200 mm³ before being used in subsequent experiments. For biodistribution or PET imaging studies, mice bearing subcutaneous AR42J tumors were administered 1.4 – 1.8 MBq (1 μg) of 111In-labeled DOTA-TATE variants or 2.7 – 4.9 MBq (1 μg) of 86Y-labeled DOTA-TATE variants via tail vein injection. Biodistribution studies with 111In-labeled DOTA -TATE variants were performed 1 hour post -injection (n = 3 per cohort), while studies with 86Y-labeled DOTA-TATE variants were conducted at 1, 4, and 24 hours post -injection (n = 3 per cohort). Mice were euthanized by CO2 asphyxiation, and 10 tissues, including tumors, were collected. All samples were weighed and counted on a gamma counter (2480 Wizard 3, Perkin Elmer Inc., Waltham, MA, USA). Results are presented as percentage of injected activity per gram (%IA/g) and mean values ± standard deviations. […]

[3] = test system: AR42J xenografts; test: Targeted alpha particle therapy, two-cycle regimen; format: in vivo, athymic nu/nu mice; details: 2 × 148 kBq
Protocol: To further assess therapeutic efficacy, AR42J xenograft-bearing mice received two cycles of ^225Ac-labeled constructs (2 × 148 kBq, administered 8 days apart) (Fig. 5D). […] Complete tumor regression occurred in two of six animals in each cleavable linker group.
Mice received either a one-cycle regimen (n=8 per cohort) or a two-cycle regimen (n=6 per cohort) at an 8-day interval. Tumor volume and body weight were measured twice weekly after treatment using a digital caliper. Tumor volume was calculated using the formula V (mm^3) = (l × w^2)/2, where l (length) was the larger of the two perpendicular tumor axes, and w (width) was the smaller axis. Survival was monitored, with the endpoint defined as a tumor volume exceeding 2000 mm^3, a weight loss greater than 20% from baseline, or signs of distress in the mice.

[4] = 2.7–4.9 MBq (1 μg), read-out: Kidney SUVmax
[5] = blood, i.v. 1 μg (2.7–4.9 MBq), ex vivo gamma counting, n = 3, read-out: Blood uptake
[6] = blood, ex vivo, n = 3, read-out: Blood uptake
[7] = femur, ex vivo, n = 3, read-out: Femur uptake
[8] = heart, ex vivo, n = 3, read-out: Heart uptake
[9] = intestine, ex vivo, n = 3, read-out: Intestine uptake
[10] = ex vivo, n = 3, read-out: Tumor uptake
[11] = kidney, ex vivo, n = 3, read-out: Kidney uptake
[12] = liver, ex vivo, n = 3, read-out: Liver uptake
[13] = lung, ex vivo, n = 3, read-out: Lung uptake
[14] = muscle, ex vivo, n = 3, read-out: Muscle uptake
[15] = spleen, ex vivo, n = 3, read-out: Spleen uptake

SMILES	SUV at 1 h [1, 4] [SUV]	SUV at 1 h ([1]; read-out: Tumor SUVmax) [SUV]	SUV at 4 h ([1]; read-out: Kidney SUVmax) [SUV]	SUV at 24 h ([1]; read-out: Kidney SUVmax) [SUV]	SUV at 24 h ([1]; read-out: Tumor SUVmax) [SUV]	tissue uptake at 1 h [2, 5] [%ID/g]	tissue uptake at 4 h [2, 6] [%ID/g]	tissue uptake at 24 h [2, 6] [%ID/g]	tissue uptake at 1 h [2, 7] [%ID/g]	tissue uptake at 4 h [2, 7] [%ID/g]	tissue uptake at 24 h [2, 7] [%ID/g]	tissue uptake at 1 h [2, 8] [%ID/g]	tissue uptake at 4 h [2, 8] [%ID/g]	tissue uptake at 24 h [2, 8] [%ID/g]	tissue uptake at 1 h [2, 9] [%ID/g]	tissue uptake at 4 h [2, 9] [%ID/g]	tissue uptake at 24 h [2, 9] [%ID/g]	tissue uptake at 1 h [2, 10] [%ID/g]	tissue uptake at 4 h [2, 10] [%ID/g]	tissue uptake at 24 h [2, 10] [%ID/g]	further results
C[C@@H](O)[C@H](NC(=O)[C@@H]1CSSC[C@H](NC(=O)[C@@H](Cc2ccccc2)NC(=O)CN2CCN(CC(=O)O)CCN(CC(=O)O)CCN(CC(=O)O)CC2)C(=O)N[C@@H](Cc2ccc(O)cc2)C(=O)N[C@H](Cc2c[nH]c3ccccc23)C(=O)N[C@@H](CCCCN)C(=O)N[C@@H]([C@@H](C)O)C(=O)N1)C(=O)O [^86Y-DOTA-TATE, metal not drawn, reference compound]	0.95 ± 0.04	0.85 ± 0.14	0.62 ± 0.06	0.41 ± 0.02	0.55 ± 0.04	0.22	0.14	0.03	0.47	0.35	0.2	0.37	0.25	0.09	0.37	0.51	0.05	5.98	4.83	3.48	tissue uptake at 1 h [2, 11]: 9.29 %ID/g; tissue uptake at 4 h [2, 11]: 6.61 %ID/g; tissue uptake at 24 h [2, 11]: 3.74 %ID/g; tissue uptake at 1 h [2, 12]: 0.29 %ID/g; tissue uptake at 4 h [2, 12]: 0.25 %ID/g; tissue uptake at 24 h [2, 12]: 0.15 %ID/g; tissue uptake at 1 h [2, 13]: 0.83 %ID/g; tissue uptake at 4 h [2, 13]: 0.34 %ID/g; tissue uptake at 24 h [2, 13]: 0.13 %ID/g; tissue uptake at 1 h [2, 14]: 0.44 %ID/g; tissue uptake at 4 h [2, 14]: 0.38 %ID/g; tissue uptake at 24 h [2, 14]: 0.1 %ID/g; tissue uptake at 1 h [2, 15]: 0.4 %ID/g; tissue uptake at 4 h [2, 15]: 0.25 %ID/g; tissue uptake at 24 h [2, 15]: 0.15 %ID/g
C[C@@H](O)[C@H](NC(=O)[C@@H]1CSSC[C@H](NC(=O)[C@@H](Cc2ccccc2)NC(=O)CCCC(=O)Nc2cc(COC(=O)N(C)CCNC(=O)CN3CCN(CC(=O)O)CCN(CC(=O)O)CCN(CC(=O)O)CC3)ccc2O[C@@H]2O[C@H](CO)[C@H](O)[C@H](O)[C@H]2O)C(=O)N[C@@H](Cc2ccc(O)cc2)C(=O)N[C@H](Cc2c[nH]c3ccccc23)C(=O)N[C@@H](CCCCN)C(=O)N[C@@H]([C@@H](C)O)C(=O)N1)C(=O)O [^86Y-DOTA-β-Gal-TATE, metal not drawn]	0.54 ± 0.05	1.96 ± 0.26	0.4 ± 0.02	0.14 ± 0.01	1.86 ± 0.25	0.32	0.23	0.02	0.97	0.96	1.01	0.33	0.26	0.11	0.49	0.33	0.1	9.71	9.16	9.03	SUV at 4 h ([1]; read-out: Tumor SUVmax): 1.63 ± 0.09 SUV; tissue uptake at 1 h [2, 11]: 3.94 %ID/g; tissue uptake at 4 h [2, 11]: 3.29 %ID/g; tissue uptake at 24 h [2, 11]: 0.76 %ID/g; tissue uptake at 1 h [2, 12]: 0.4 %ID/g; tissue uptake at 4 h [2, 12]: 0.35 %ID/g; tissue uptake at 24 h [2, 12]: 0.27 %ID/g; tissue uptake at 1 h [2, 13]: 0.72 %ID/g; tissue uptake at 4 h [2, 13]: 0.58 %ID/g; tissue uptake at 24 h [2, 13]: 0.15 %ID/g; tissue uptake at 1 h [2, 14]: 0.48 %ID/g; tissue uptake at 4 h [2, 14]: 0.25 %ID/g; tissue uptake at 24 h [2, 14]: 0.09 %ID/g; tissue uptake at 1 h [2, 15]: 0.32 %ID/g; tissue uptake at 4 h [2, 15]: 0.5 %ID/g; tissue uptake at 24 h [2, 15]: 0.12 %ID/g
C[C@@H](O)[C@H](NC(=O)[C@@H]1CSSC[C@H](NC(=O)[C@@H](Cc2ccccc2)NC(=O)CCCC(=O)Nc2cc(COC(=O)N(C)CCNC(=O)CN3CCN(CC(=O)O)CCN(CC(=O)O)CCN(CC(=O)O)CC3)ccc2O[C@@H]2O[C@H](CO)[C@H](O)[C@H](O)[C@H]2O)C(=O)N[C@@H](Cc2ccc(O)cc2)C(=O)N[C@H](Cc2c[nH]c3ccccc23)C(=O)N[C@@H](CCCCN)C(=O)N[C@@H]([C@@H](C)O)C(=O)N1)C(=O)O [^225Ac-DOTA-β-Gal-TATE, metal not drawn]	–	–	–	–	–	–	–	–	–	–	–	–	–	–	–	–	–	–	–	–	Tumor control ([3]; 8-day interval, n = 6): significantly smaller; also recorded: prolonged tumor control with sustained growth inhibition; Median survival time ([3]; 8 days apart, AR42J xenograft-bearing mice, n = 6, Kaplan–Meier, vehicle 26.5 days): 191.5 days; Mice with tumor volumes below 100 mm^3 by the final monitoring point ([3]; n = 6): all six
